Assay results published in paper PMC7979743 (Nature Communications, 2021).

Molecular target: ookinete protein Pfs25 (Plasmodium falciparum NF54 (3D7 entry …, UniProt P13829))
Test: ELISA; Pfs25 ELISA; series of mAb concentrations, OD 450 nm

Sequence of ookinete protein Pfs25 (Plasmodium falciparum NF54 (P13829 17-196): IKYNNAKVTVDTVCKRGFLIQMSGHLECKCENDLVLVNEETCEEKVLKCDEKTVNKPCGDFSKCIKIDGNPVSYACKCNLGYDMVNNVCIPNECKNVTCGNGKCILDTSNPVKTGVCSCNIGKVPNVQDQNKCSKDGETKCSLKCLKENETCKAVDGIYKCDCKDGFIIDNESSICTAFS

Binder | binding result
LMIV230-01 human monoclonal antibody (IgG1, kappa) (antibody, V domains shown) VH: QVQLVQSGAEVKKPGSSVKVSCKVSGGTFNTYAIIWVRQAPGQGLEWMGAIIPFQDRGQYAQKFQGRVTITADKSTSTAYMELSSLRSEDTAVYYCAKESGRAVADRWGQGTLVTVSS VL: DIVMTQSPASLALSLGERATLYCRASHSISSWLAWYQQKPGKAPKLLIYKASTLESGVPSRFSGSGSGTEFTLTISSLQPDDFATYYCQQYKSYPWTFGQGTKLEIK | no binding
LMIV230-02 human monoclonal antibody (IgG1, kappa) (antibody, V domains shown) VH: QVQLVQSGAEVKKPGSSVKVSCKASGGTFNSYGISWVRQAPGQGLEWVGGIIPSFGTADYAQKFQGRVTFTTDTSTSTAYMEVSSLRSEDTAVYYCAGSSWSSGTYYGRSAYWGQGTLVTVSS VL: EIVMTQSPASLALSLGERATINCKSSQSVLYSSNNKNYLAWYQQKPGQPPKLLIYWASTRESGVPDRFSGSGSGTDFTLTISSLQAGDVAVYHCQQYYSTPYSFGQGTKLEIK | no binding
